This is an account of results in article PMC3863616 (Journal of thrombosis and haemostasis : JTH, 2009).

Changes are numbered by the printed parent chain. Names may count otherwise. Where two headings read alike, the source gives them in different places.

In assay [1] the target is Purified recombinant von Willebrand factor (UniProt P04275). As to the kind of experiment: co-IP + ELISA. For orientation: In an ELISA, binding on a coated surface is turned into a signal by an enzyme label.
Assay [2] concerns the target VWF (antibody-immobilized) (Homo sapiens) (UniProt P04275). Conditions: cited from earlier work.
Assay [3] addresses VWF (plastic-immobilized) (Homo sapiens) (UniProt P04275). Conditions: cited from earlier work.
The target in assay [4] is Endogenous von Willebrand factor of normal human plasma (human (endogenous in normal human …, UniProt P04275 764-2813)). As to the kind of experiment: co-IP + ELISA.
Assay [5] has as its target T1, Purified recombinant von Willebrand factor (UniProt P04275 764-2813). The assay is described as follows: co-IP + ELISA.
Assay [6] deals with T1, Purified recombinant von Willebrand …. As to the kind of experiment: co-IP + ELISA. This is another data set of the same source.

As a reminder, the Kd is a measure of binding affinity in units of concentration. “Human recombinant ADAMTS13 truncated after the eighth TSR (domain or fragment)”: in assay [1], the Kd is 0.1 µM.

Take ADAMTS13 (from UniProt Q76LX8): the Kd was 0.09 µM in assay [2] and 0.014 µM in assay [3].

B1: Endogenous ADAMTS13 of normal human plasma (enzyme, UniProt Q76LX8 75-1427, looked up)
chain: AAGGILHLELLVAVGPDVFQAHQEDTERYVLTNLNIGAELLRDPSLGAQFRVHLVKMVILTEPEGAPNITANLTSSLLSVCGWSQTINPEDDTDPGHADLVLYITRFDLELPDGNRQVRGVTQLGGACSPTWSCLITEDTGFDLGVTIAHEIGHSFGLEHDGAPGSGCGPSGHVMASDGAAPRAGLAWSPCSRRQLLSLLSAGRARCVWDPPRPQPGSAGHPPDAQPGLYYSANEQCRVAFGPKAVACTFAREHLDMCQALSCHTDPLDQSSCSRLLVPLLDGTECGVEKWCSKGRCRSLVELTPIAAVHGRWSSWGPRSPCSRSCGGGVVTRRRQCNNPRPAFGGRACVGADLQAEMCNTQACEKTQLEFMSQQCARTDGQPLRSSPGGASFYHWGAAVPHSQGDALCRHMCRAIGESFIMKRGDSFLDGTRCMPSGPREDGTLSLCVSGSCRTFGCDGRMDSQQVWDRCQVCGGDNSTCSPRKGSFTAGRAREYVTFLTVTPNLTSVYIANHRPLFTHLAVRIGGRYVVAGKMSISPNTTYPSLLEDGRVEYRVALTEDRLPRLEEIRIWGPLQEDADIQVYRRYGEEYGNLTRPDITFTYFQPKPRQAWVWAAVRGPCSVSCGAGLRWVNYSCLDQARKELVETVQCQGSQQPPAWPEACVLEPCPPYWAVGDFGPCSASCGGGLRERPVRCVEAQGSLLKTLPPARCRAGAQQPAVALETCNPQPCPARWEVSEPSSCTSAGGAGLALENETCVPGADGLEAPVTEGPGSVDEKLPAPEPCVGMSCPPGWGHLDATSAGEKAPSPWGSIRTGAQAAHVWTPAAGSCSVSCGRGLMELRFLCMDSALRVPVQEELCGLASKPGSRREVCQAVPCPARWQYKLAACSVSCGRGVVRRILYCARAHGEDDGEEILLDTQCQGLPRPEPQEACSLEPCPPRWKVMSLGPCSASCGLGTARRSVACVQLDQGQDVEVDEAACAALVRPEASVPCLIADCTYRWHVGTWMECSVSCGDGIQRRRDTCLGPQAQAPVPADFCQHLPKPVTVRGCWAGPCVGQGTPSLVPHEEAAAPGRTTATPAGASLEWSQARGLLFSPAPQPRRLLPGPQENSVQSSACGRQHLEPTGTIDMRGPGQADCAVAIGRPLGEVVTLRVLESSLNCSAGDMLLLWGRLTWRKMCRKLLDMTFSSKTNTLVVRQRCGRPGGGVLLRYGSQLAPETFYRECDMQLFGPWGEIVSPSLSPATSNAGGCRLFINVAPHARIAIHALATNMGAGTEGANASYILIRDTHSLRTTAFHGQQVLYWESESSQAEMEFSEGFLKAQASLRGQYWTLQSWVPEMQDPQSWKGKEGT
In general, stoichiometry N refers to a count of units in the complex or per binding partner. Take B1: in assay [4], the “stoichiometry N” value is 0.004 ADAMTS13 per VWF (molar ratio).

B2: Human recombinant ADAMTS13 with the active site mutation E225Q (enzyme, UniProt Q76LX8 75-1427, looked up)
chain: B1 chain with E151Q
On to B2, for which the Kd was 0.079 µM in assay [5] and over 0.5 µM in assay [6].
